Data from PMC6388921, “An alkaline active feruloyl-CoA synthetase from soil metagenome as a potential key enzyme for lignin valorization strategies” (PLoS ONE, 2019).

Target: the molecule itself
Test: dynamic light scattering; FCS1 at 1 mg/mL in 20 mM Tris-HCl pH 7; hydrodynamic radius converted to mass assuming a spherical molecule

B1: feruloyl-CoA synthetase FCS1 (enzyme, UniProt A0A2P1BT06 1-707, looked up)
chain: MGERRFSNQQIDRLLRPKSVAVIGASDRKGALGATLLNNLVQYEFSGDIYPVNPKRDELLGLKVYHEVAELPEGIDCAVLAIPRPFVIDTVRQLAQRGCGAVVIYSAGFSEAGEEGMKDQLELAAIAAEYGMVIEGPNCLGCTNYVERVPLTFVETNMQTPPKGTRAVGIASQSGALAAVLATALHPRGLYVSSSVSTGNEAASGVEDYVEWLVDDEDTHVIAMYVESLRRPKAFIAAARRAHAAGKPIVMLHPGKSNKAQESAATHTGAMAGDYALMKTKLAREGVIFADTLEELADITEIALRCRALPGANMAVLGESGALRGLAFDIAEDIGLDLIHLDDDNSPALRAILPDFVPVSNPTDITALGLSEPEIYTKVLTALLEDERIGSVVASIIQSDPITSGIKFPHIIKVLDGGTFAKPLVFAGVDEGATVPKEYIDGLRKVGIPWFPSTERAYRAIARLADLSKRDLADNSGDPIVVPGLDAVSGVVPEYKAKELLRPLGIAFPPSQFAANAEAAAAAARAIGYPVVMKAQAAALGHKSDAGGVILNLKTDDEVRDAFARIYGNVEAYDRSIALDGVLIEKMGKMGTEMIVGAKNDPQWGPVVLAGFGGVTAEILKDVKLFTPEMDAAAVQRGLLELKQAPILKGYRGAPALDVAALAELIVQIGRVMAGNPSIREIDLNPVIIHPAGEGVAALDALMLVER
notes: feruloyl-CoA synthetase FCS1 from the metagenome of a lignin-degrading microbial consortium from sugarcane plantation soil; GenBank MG214406; codon-optimised, synthesised gene; predicted molecular mass 74.9 kDa; No tag cleavage is described
  stoichiometry N: 2
